Data reported in the supplement of paper PMC12636428.

Tested on: Saccharomyces cerevisiae
Assay: transcriptional activation domain activity (GFP:mCherry ratio, weighted mean of sorted bins, harmonized to initial dataset scale) (arbitrary fluorescence ratio units); higher = stronger transcriptional activation
Conditions: beta-estradiol 1 µM; induction time 4 h
How it was run: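 Values are activation activity, found as the read-weighted mean of bin median fluorescence, averaged across barcodes and then mapped linearly onto the initial dataset scale. Barcoded protein tiles fused to an estradiol-inducible synthetic transcription factor were integrated at the URA3 locus of GFP-reporter yeast diploids. Cells were induced for 4 hours at 30 °C with 1 uM beta-estradiol in SC, sorted into 8 bins by GFP:mCherry ratio, and barcode-sequenced, with tiles under 50 reads discarded.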

Row | Sequence | transcriptional activation domain activity
1 | NRKTIGKQDPYCAARLGKEAKKTDTDRRGGQTPRWDQELRYTVHDSPDYYQLK | 33300
2 | TFARHTDQKWLEEVITEALNELAGLGIVRAHLIALRWCSERITITRVYCSRLL | 43300
3 | ATCPSFFRSICSTYYDNFVFVWDAVAAFLVPYQRYTYYPIMGIARFNLYLLSW | 52400
4 | DTPFALHTLLIMHGHILLCENAKVSLDSSDTLNIFVPLVTVLINRLTNRKEYS | 32800
5 | LWQYMEFRILVYIFFGLSFIPLSIFLLFCTCLSSFIFFVAAGIWLFVGTIAFF | 54200
6 | YQTGYFSEAHFFLFFLFFYFRKSFSFQSNCISYTLPFGLLPIFFSTTIVLFWF | 66400
7 | EAEAEAAPEAEAAKPKNRGGRPKKAVLPAAAAPAPKEKEEPKPKATAGRKRKA | 33400
8 | MRGVCSFCSFCSFSFLFLFLFLFLFFSFFSFFSFCFFLFFPSFLSVSLSFLLS | 71100
9 | GRWSYLRTSEMILTFFYKNIMWTLVLFWYQLMCGFTGTMMFDYSYITLYNLVF | 46300
10 | ILLMELILHTVYCVAISKWGHWEAFSVYEISLIGYMRLSFIWLKLLVIWRFAR | 88100
11 | MCVAFSFSSPRFFYSWVMGDFSFFFSFLPPFDSFFSFSLGSIMYPLFLGIFFF | 59400
12 | SASSSAPRKPVSISIGGGGGGAAAAAAAPPADKKPVSISIGGSSAKAAAPAAA | 38800
13 | EQGDTPAKKKARKGASGTGRKRKTVGDDEAAGGNEQEGQPKKKARREKAAATE | 29300
14 | TMFHGLLFHLCHGAAVLVVWSFHHVVCSMRDDEETLQVMEELDYVIHVLNAFA | 47800
15 | MHCEGCIQVIYRCYCLLIFLFFYYVCLFCLYILGKQLGLVHVFFYKYWCFFIL | 53100
16 | LDLEHLFGIDIEQRFQSYVMTQQAWLMPYLARIYYSHISLGVCFLVYIYTFLP | 44100
17 | KGGRKCKKGRAGEEAGMPARRRKGGERGGRGGKTGARGGEEGGGGEGGAARNG | 34800
18 | IIFYLIISIIIIIILLLFYYYLLFIIMFFIQDVGCWLLLWCFVGLFELLLQLL | 28700
19 | LKEKSLRILILNGLVRLIWTYLYRCQESPSTTTTKLENLLKYLFPPNRTSVYP | 44900
20 | RLLVTTYRMFFILVVTLNLIALALVTVGHFPYADNHIGVILLGNLLCAVMIRN | 29800
21 | MYECACFPFPFFLSFFFFLSSFSYGCPFCFVGYRFPLLPLLLSVFLFLGLCLM | 33800
22 | GGIIMAFFLRLNFGLWGICIALFGLRGQAELPLLIHVQRHILSIYVIIPRWFW | 56300
23 | ASFLVLRDIRLLDCFSVLASCGYVSLFPLIYTCDEWLIKVVYTLLWYIIYYFS | 84300
24 | EGLYKCRYGSYFIELSRYSFFFAMFLFFLRAGWYPFSAFWLGCFWHQLVFTAH | 40800
25 | GAEGAGAPGGAPPQLKKPKKHHKKKHHKKHGHRGGKHKHGKKGKWGKKGKKGL | 15100

Row | Sequence | transcriptional activation domain activity
26 | ETSDEAKSEDSSSDEGDDSSSSEDDGRKRSRKKSVIKMRKTKAKKTKKKGKKS | 39300
27 | MEGGRGSRGSHENNELFFFLSLHSRFFFFYLFIYFSLLFFSFTIYFMVFFFFF | 54600
28 | MPFGRRSAFGVFFIYHFFFVLHLIFTGFQSIFVYIGLSKLFFFWFGPFFFLFP | 61800
29 | REQQQRNDFPEGTHRMKVVAERWKTLSDDQREISFISSLLYAYVHVELRLRLG | 46500
30 | MAETTTSDSGASSSTALQRGKACLRCRKRKMRCDGQKPACSQCVKARKTDACE | 34100
31 | MGVCLCVALFAPFFSLFFFLSPAPYCSGKIWHLSILFLLYHCRRVLPLFILAC | 49600
32 | FVVLLYQSIFVLSLWLLPVFFKSHIKSLSYKSQVDTSIHVVSMFQCLLILYLI | 50200
33 | MARLLFIPIFVNLSFPHHKSYFFLTSMLTLLLQLYLLLSLCWLILLLPCLKDS | 40400
34 | MLYSFRLLFILFFFLLEALSICRRCNVTGRGCFRDWDCWNACHQYAVSPRWGI | 41900
35 | SRLLHLLLVTLGLLVVLLYSFFPSPDVFVLSPLRSPLFLLFSPSFFFCLFCLF | 75400
36 | HNLFELVFLDQMCGFCCFSMRFVVMLDLIGTIILPSTVIYLVYIIIAAVLKFQ | 38600
37 | KDYSVEAGIRFLQFIIHKCITVDIGVLCDIIDKVYGSLVIINCLRRYRNLHNL | 48500
38 | SQVCLDSFGLLFAVVAYPCTSLLLLIFILASFLTFQAIFTLFPLFRLLAFFCL | 41700
39 | MYTYTITFLSFISTIPLHSFLLFEQAYEYLCILLSLTVCLQTQLLLNICLLPF | 73000
40 | PIGIFFFFPFVWLFRVFIFLCISYCCFLVPYVCSRGSSFFWLPVSTLFLSFLF | 45000
41 | TKQGHELLHQLRHLIIFREGMPCSDITLKLDIHVSKLVFVFLSAFEHGLCSKD | 58200
42 | CKSFITVLMDLPHFTTSCVWVFFFSSFCFLWENASLLYRRLILSFFSFSFLFP | 66000
43 | RQRQQNGRAPRAPRAEKPTDGFEVKEGRGERRGRGEGRGEGRGRGRGGRGRGR | 13000
44 | EVYLLRFEQCLTRAMTLIRMFFVGSLRALTQDVSRRLAEKDVSQTAQTHLLYT | 46300
45 | LHRLHLARVTVDKEGKLVSTTNMTILNLWLVWRGPMREDRLTIEITLFQAFVG | 26400
46 | GMHSGDGEFVPFYAPVVVEGPVEAWLLEIEATMRVTLRKLLLGCILALKKAKK | 61300
47 | PFFRVHHLYLPSLLQVVNLAILTSHALFNFIPHFYIVCIIVFWEGLLGGLVYV | 60500
48 | KEDILLTLYENSTFGGLWSKLSDCLTVIRQRGNMLNIATILLPLIEALMVVCK | 54700
49 | LASLTPLISRRTPATTHARPHSTTQIPHRHHSAEMAEEQKPVVVADAPAAPAV | 27800
50 | MFFCSFFRWGFIFFFSFLFFSFILLCWCFLVFLNFATDPACNLPFSFLVFIPR | 57600

Row | Sequence | transcriptional activation domain activity
51 | FSLGTVLLALCRYLPFGTILQIYVLFLRVESPLCVNGYRAIAFPVVCLWVLLV | 52600
52 | QTRQDEDHWQRVRELENQSSLYYLPIHEETPFFIDLIPNGFYLETKRSADNLF | 92000
53 | EQAAKKKTAAPAAAPKAEAAKAPEVKAEAAAPAPEPEKPAAGGKKKKLNPALL | 52300
54 | GAPHHNQFLDLNLGLEVYKETGRRVQFLVAAKSMQRKFVGLCCRLIHAIPVVR | 67400
55 | LCLRLMIKVAFSGEDTEVDFSMLQVAVRYILGIHGVNTLAPAWTFWGKCLDSM | 37000
56 | GHGKLGYFTGKAVASIYRFILSSLHFASIFILLGKPTSSFGFIYLVIMLQFWC | 50200
57 | MSFKFFFCLLIPSFSLFKITYAWSYLMILEVVFSPFFSQVVVFVLFILHHFYH | 53000
58 | VGTLHENLSSSHFMIPDVDQFNSFEDFFQDFFDSLKPNSQKMFTSDKKTEQTT | 106000
59 | MDYVWRRVRWIRVRKHMVFIATLLEPFTECMLVCLIGALSARHLFDIRLVVFY | 49000
60 | AFLCWVAPNNQVANFLGSGFGGMGFLNLSLDWSNISTNGSLFLTPWWTQVVMF | 52500
61 | VVAAETAPATEEKPAEETKPAEEAAKAEEKKEEEEIKPVEEGHLNHKAQGLSF | 49400
62 | ESAVKFENSGPFINPSRASTLLVSRDSNRIILSGTTARGKTAVFLTTGLLVES | 63200
63 | EETPVTEAPKAVEESKPVEEVKSEQKEGAAETAKDEPAQETATERSTESTPAS | 34900
64 | GQAGAPQRASARGSVQLPAQRGAQDGEPAAARRARSRDHARHKPPRHGEAVHA | 46200
65 | EFPAPPARPPPSHTAPPAPPPPPPPPPPPAAGGGVPPPPPPPPPPATGGAPAP | 30300
66 | GMCVCTYRLHRCSHVKSRGRRFLCLHVLLCDVMMGPLTEWWCPLLRMMVKVYL | 47800
67 | ASSAPAAASSAPDAASSAPAAASSAPAAASSAPPAAASPAASPAAGGFQLQNG | 38200
68 | TSLVYPIHSSDTGDTLSSGLETPENSNFNSDSGIKEDFEAFRALLPLGKLIYD | 69500
69 | IRGMCPEKPQIREIVYLLRGLIVNRILLMTLKKRWNVQYGLHSTRDPIAVPFH | 53200
70 | MDAYFFFVFLSFLFFYIFFLLFSILLLFSFYFLCSGVHNMCFLVGVWLWSRGG | 35800
71 | FSMTVGFTTAFSFLFLGYPTWGTRLWSFLPFWIGFYNLFVFLSKLDPIWAILF | 48800
72 | MARLHIGQLCSRSFFYALLVLSTWSSKLVYLWPHLTSSLPPLLIVLYIPTFLL | 72900
73 | AGGGRKAKATQTGAGASRQKTKTGFQTGRSRRAGNAKTKTNRRAINKPRNGDS | 28900
74 | TEGEPETPADGDEEEGGEAEAEGGEEKKEEEEGWGLPVKKKKGKKGKGSNDAT | 26900
